T1: recombinant CD46-Fc fusion (human CD46 domains 1 and 2) (human, UniProt P15529 35-159)
T1 construct: domain: domains 1 and 2; also called recombinant human CD46 protein fragment; recombinant CD46-Fc (domains 1 and 2); not shown: Fc from the pFUSE-Fc vector (Invivogen)
T1 sequence (looked up): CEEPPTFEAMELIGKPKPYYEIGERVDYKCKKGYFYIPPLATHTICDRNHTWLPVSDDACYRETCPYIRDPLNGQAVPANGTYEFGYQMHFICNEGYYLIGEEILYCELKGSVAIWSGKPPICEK


Experiments:
[1] = target: human CD46 on the surface of living multiple myeloma cells (human), P15529; experiment: cell-based or functional assay
[2] = target: human CD46 on the surface of living multiple myeloma cells (human) (UniProt P15529); experiment: FACS on living RPMI8226 cells, MFI fitted with a one-site specific binding model
[3] = target: human CD46 on the surface of living multiple myeloma cells (human) (UniProt P15529); experiment: FACS on living MM1.S cells, MFI fitted with a one-site specific binding model
[4] = target: T1, recombinant CD46-Fc fusion (human CD46 …); experiment: BLItz biolayer interferometry, biosensor coated with YS5 IgG1, CD46-Fc at 100 to 400 nM; one value for all four runs
[5] = target: T1, recombinant CD46-Fc fusion (human CD46 …); experiment: BLItz label-free biosensor (ForteBio), sensor coated with YS5 IgG1, CD46-Fc (domains 1 and 2) in solution

Binder	EC50, killing of primary MM patient cells at 48 hours (Annexin V/PI FACS) [1] [nM]	EC50, viability of MM1.S alone (luciferase, 96 hours) [1] [nM]	EC50, viability of MM1.S in the presence of BM61 stromal cells [1] [nM]	EC50, viability of MM1.S in the presence of HS5 stromal cells [1] [nM]	EC50, viability of MM1.S in the presence of HS27A stromal cells [1] [nM]	Kd [2] [nM]	Kd [3] [nM]	kon [4] [M⁻¹ s⁻¹]	Kd [5] [nM]
CD46-ADC (anti-CD46 IgG1 YS5 conjugated to MMAF via the mcvcpab linker) (antibody, V domains shown, here or on the partner: mcvcpab-MMAF on cysteines freed by TCEP reduction; average drug per antibody 3.3; sites not stated) VH: QVQLVQSGGGVVQPGRSLRLACAASGLTVNNYAMHWVRQAPGKGLEWVAVISYDGNNKYYADSVKGRFTISRDNSKNTLYLQMNSLRAEDTAVYYCAKGGGYFDLWGRGTLVTVSS VL: QSVLTQPPSVSGAPGQRVTISCTGSSSNIGAGYDVHWYQQLPGTAPKLLIYGNNNRPSGVPDRFSGSKSGTSASLAITGLQAEDEADYYCSSYTSGTWLFGGGTKLTVL	< 10	2.25	1.05	0.77	0.92				
YS5 IgG1 (full-length human anti-CD46 IgG1) (antibody, V domains shown, also called anti-CD46 antibody; CD46 antibody) VH: QVQLVQSGGGVVQPGRSLRLACAASGLTVNNYAMHWVRQAPGKGLEWVAVISYDGNNKYYADSVKGRFTISRDNSKNTLYLQMNSLRAEDTAVYYCAKGGGYFDLWGRGTLVTVSS VL: QSVLTQPPSVSGAPGQRVTISCTGSSSNIGAGYDVHWYQQLPGTAPKLLIYGNNNRPSGVPDRFSGSKSGTSASLAITGLQAEDEADYYCSSYTSGTWLFGGGTKLTVL						1.19	2.24	88000	2.99

— US20230383005A1 (University of California, published 2023)
